The record followed here is the DeepSol protein solubility set.

This data set in a line: soluble on expression in E. coli; label from the status in PepcDB or PDB records.
For “MIKMTQSRLHAAQNALAKLHEHRGNTFYPHFHLAPPAGWMNDPNGLIWFNDRYHAFYQHHPMSEHWGPMHWGHATSDDMIHWQHEPIALALGDDNDKDGCFSGSAVDDNGVLSLIYTGHVWLDGAGNDDAIREVQCLATSRDGIHFEKQGVILTPPEGIMHFRDPKVWREADTWWMVVGAKDPGNTGQILLYRGSSLREWAFDRVLAHADAGESYMWECPDFFSLGDQHYLMFSPQGMNAEGYSYRNRFQSGVIPGMWSPGRLFAQSGHFTELDNGHDFYAPQSFLAKDGRRIVIGWMDMWESPMPSKREGWAGCMTLARELSESNGKLLQRPVHEAESLRQQHQSVSPRRISNKYVLQENAQAVEIQLQWALKNSDAEHYGLQLGTGMRLYIDNQSERLILWRYYPHENLDGYRSIPLPQRDTLALRIFIDTSSVEVFINDGEAVMSSRIYPQPEERELSLYASHGVAVLQHGALWLLGLEHHHHHH”, the “soluble on expression in E. coli” value is listed as “soluble”.
Regarding “QQMQAESGFVQHVGFKCDNCGIEPIQGVRWHCQDCPPEMSLDFCDSCSDCLHETDIHKEDHQLEPIYRS”, the “soluble on expression in E. coli” value is listed as “soluble”.
With “FPSTYLSHRQETIGQKATAIAQSLEGKDRQSIEQVLDLYSQTSDIKGTVKGEMTEDKLEVKDSLPLDTDRQTTSLFIEEREVKTQDGGTMILQFLASMDLQKEAEQ”, the “soluble on expression in E. coli” value is recorded as “not soluble”.
As to “MEEKKTESATKNVKKVNLLDHIAIKHLLDESVSDIVTSRGYKEDGSFTSTGLVVSSKLPRFSDQYTLTIDSADPQSISAGKSVQFTKSVTQWLTKDGVLVEGLFWKDVEALVKEYTEAGEPKKKR”, the “soluble on expression in E. coli” value is “not soluble”.
As for “MSKIAKTAIISPKAEINKGVEIGEFCVIGDGVKLDEGVKLHNNVTLQGHTFVGKNTEIFPFAVLGTQPQDLKYKGEYSELIIGEDNLIREFCMINPGTEGGIKKTLIGDKNLLMAYVHVAHDCVIGSHCILANGVTLAGHIEIGDYVNIGGLTAIHQFVRIAKGCMIAGKSALGKDVPPYCTVEGNRAFIRGLNRHRMRQLLESKDIDFIYALYKRLFRPIPSLRESAKLELEEHANNPFVKEICSFILESSRGVAYKSSEYSSEEKQEE”, the “soluble on expression in E. coli” value was “soluble”.
In the case of “MAHHHHHHMPSSFAAQQQGSCNPHQNPVRSHKGGYLRCPFNISSSYAELAERRVHEDLACGRSRAAVADKDGVKAFPSTGPQVDSDGIDGDFAGRPWSRAGVGANRLSGKEKRTQQEQAEHIYGRGTLAEDDGAVAATGAVSVTSDLLQENMFAVDVRERAALQKVVPRAVREQVKRRKLEDVKKERLSPGNHCRHGCAPLHTDRAAGEEAGEDDDVESRSEDHMAGPPRERTRFSSPAAGSSRVGAPPLPHSAGSKDHPSGGSSSANVGAERSPRSGPSDASAQRPPLREPTPAPVSAKSNCPKNRMQMLDGLRASALMNKKGRR”, the “soluble on expression in E. coli” value is “soluble”.
As to “MKQVCVLGNGQLGRMLRQAGEPLGIAVWPVGLDAEPTAVPVQQSVITAEIERWPETALTRELARHPAFVNRDVFPIIADRLTQKQLFDKLGLATAPWQLLTSTDEWSGIFDRLGELAIIKRRVGGYDGRGQWRLRADETGQLPDDCYGECIVERGIHFSGEVSLVGARAHDGSTVFYPLTHNLHQDGILRTSVAFPQANAEQQEQAESMLSAIMQALNYVGVMAMECFITPEGLLINELAPRVHNSGHWTQNGASISQFELHLRAITGLPLPAPVINAPSVMINLIGSELNYDWLKLPLVHLHWYDKAVRPGRKVGHLNLTDSDTSRLSATLEALSPLLPGEYASGIIWAQSKLK”, the “soluble on expression in E. coli” value was “not soluble”.
In the case of “MTKEEIIKPENLVYKKPTLMNDNPMHYCPGCSHGVVHKLIAEVIEEMGMEDKAIGVSPVGCAVFAYNYLDIDWQEAAHGRAPAVATAIKRLWPGRLVFTYQGDGDLACIGTAETIHALNRGENITIIFINNAIYGMTGGQMAPTTLVGMKTATCPYGRDVAIHGYPLKMTEIAATLEGTAYVTRQAVHTVPAIRKAKKAIRKAFENSMNGKGSNLVEIVSTCNSGWKMTPQASNDWMVEHMFPFYPLGDLKDKE”, the “soluble on expression in E. coli” value is reported as “not soluble”.
On to “MGSDKIHHHHHHMDFKELFPEVITKQEVKQSEDYIIVEQDGHVLHFPKSSLTKRELYLLQMTPSLEDASSVDSQNPWYRYLVEGRGRLPQSHSAVQFIFIEHQFTLSEELKDFLSPLVINVETIMTINQTQSVMILNQDNFFNATELLTDILPTIENDFNTRLRCYFGNSWTHLQAVDWKELYEEEYKLFTLFLSHKAEQHYCRFPKMALWALANQSPMPSIKAKCLQHILDTSDTSAIIKALWQEQGNLAKTAKALFIHRNSLQYKLDKFTQSSGLNLKILDDLAYAYLISMDT”, for which the “soluble on expression in E. coli” value was “not soluble”.
The result for “MNTQKRQQIRTEIRKIRANLTALQQHQAEQSVTQHALNLIEQRQAKNIALYFSFDGEISTKALIQSLWMQNKNVYLPVLHPFTKHYLLFLRYLPDTPMKQNQFGIWEPKLNVQNVLPLNELDILFTPLVAFDKKGNRLGMGGGFYDRTLQNWQNKSFIPVGLAYQCQQVENLPTEHWDVPLFDILVGLEHHHHHH” reads “not soluble”; that for “MGSDKIHHHHHHENLYFQGMIIRYATPDDIEDMVSIFIDAYNFPGPRESVKSSFEISLEVQPDGCLLAFLKDEPVGMGCIFFYNKQAWIGLMGVKKAYQRRGIGTEVFRRLLEIGRRKVDTIRLDASSQGYGLYKKFKFVDEYRTVRYELMERPIKRVEGVVEVNKIPNWVKEIDKKAFGDDRIRVLEAYMRRGARLLCAENEGFGLVYRGKIGPLVADSPRVAEKILLKAFQLGAREIIIPEVNKDALELIKIFKPSQVTSCMRMRLGSKIEEKVDIYYGILAYAKG”, “soluble”; that for “MAHHHHHHMCGSCWAFAAIGNIEGQWFLAGNPLTRLSEQMLVSCDNTNSGCGGGSSLKAFKWIVDRNNGAVYTEESYPYHSCIGIKLPCTTSGHTVGATITGHVELPQDEAQIAAWLAVNGPVAVVVDASSWIFYTGGVLTNCVSKKLDHAVLLVGYNDSATAPYWIIKNSWTTQWGEDGYIRIAKGSNQCLVKEEASSAVVGGPGATPEPTTTTTTSAPGPSPSCFVQMSCTDAACIVGCENVTLPTGQCLLTTSGASAIVTCGAETLTEEVFLTSTHCSGPSVRSSVPLNKCNRLLRGSVEFFRGSSSSGRLADVDRQRRYQPYHSRHRRL”, “soluble”.
The result for “MSLCWILMASHAQAEPFKIGLLVWSDQIAGQVAMRAGLEAEAAHLQQQARDKNLPSFTLDIKLAGDGPAGVEKQIQQMQAMVDDRVDLIIVQPTDNAALSSPLQAANQAGIPVVAYDQYISGGHLSAFVTSNNYQAGFLDGEYMAHHFADDHTIQIILVEYPYVSSTIDRVDGFFDALNQYKQPYRILRSYQAVEPVQGRAVGQQILQDFPQPGSVDALFTINDGGGLAIVDELEKAGRHELFVATIDGDPNSVARIRKGSIIKIDSAQFCGPIGAEAMRAAYAILTAGKVHEHWLVPVFPITRQSVAHYPGWSGPIPEHYSNPCLTFLCREGHHHHHH” reads “soluble”; that for “MSEGWNIAVLGATGAMGEALLETLAERQFPVGEIYALARNESAGEQLRFGGKTITVQDAAEFDWTQAQLAFFVAGKEATAAWVEEATNSGCLVIDSSGLFALEPDVPLVVPEVNPFVLTDYRNRNVIAVPDSLTSQLLAALKPLIDQGGLSRISVTSLISASAQGKKAVDALAGQSAKLLNGIPIDEEDFFGRQLAFNMLPLLPDSEGSVREERRIVDEVRKILQDEGLMISASVVQAPVFYGHAQMVNFEALRPLAAEEARDAFAQGEDIVLSEENEFPTQVGDASGTPHLSVGCVRNDYGMPEQVQFWSVADNVRFGGALMAVKIAEKLVQEYLY”, “not soluble”.
